Target: T1, human transferrin receptor-Fc tag standard (human, UniProt P02786 89-760, limits assumed)
T1 construct: Coated on a 96 well plate at 2 ug/ml; also called hTfR; not shown: Fc tag
Assay: ELISA on plate-bound hTfR-Fc with anti-His detection; Kd calculated from an expected saturation point, since the curve was not saturated

T1 sequence (P02786 89-760 limits assumed): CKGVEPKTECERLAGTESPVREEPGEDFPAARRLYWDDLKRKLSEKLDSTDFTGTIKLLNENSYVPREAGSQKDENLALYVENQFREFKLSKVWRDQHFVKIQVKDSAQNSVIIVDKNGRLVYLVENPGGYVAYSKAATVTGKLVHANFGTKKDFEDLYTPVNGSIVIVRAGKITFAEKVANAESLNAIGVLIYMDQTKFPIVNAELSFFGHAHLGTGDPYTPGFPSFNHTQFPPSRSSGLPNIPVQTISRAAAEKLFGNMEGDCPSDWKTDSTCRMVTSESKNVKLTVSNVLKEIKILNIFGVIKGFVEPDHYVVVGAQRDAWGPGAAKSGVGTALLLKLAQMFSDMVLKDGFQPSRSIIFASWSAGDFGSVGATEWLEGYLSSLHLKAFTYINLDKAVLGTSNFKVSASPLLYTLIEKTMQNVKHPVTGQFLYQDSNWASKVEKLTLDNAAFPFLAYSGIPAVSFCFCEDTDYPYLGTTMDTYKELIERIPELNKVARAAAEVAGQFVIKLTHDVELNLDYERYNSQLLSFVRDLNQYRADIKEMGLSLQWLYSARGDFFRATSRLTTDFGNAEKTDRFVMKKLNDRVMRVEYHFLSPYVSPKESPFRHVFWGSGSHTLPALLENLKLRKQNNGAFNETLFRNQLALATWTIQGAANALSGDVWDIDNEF

Kd: ~4.4 µM
B1: huHF_Mutant2-dual (designed binder)
chain: MTTASTSQVRQNYHAASEAAINAQINLELYASYVYLSMSYYFDRDDVALKNFAKYFLHQSHEEREHAEKLMKLQNQRGGRIALADIQKPDCDDGGSYGSLYAFDIWESGLNAMECALHLEKNVNQSLLALHALATAKNDPHLCDFIETHYLNEQVKAIKELGDHVTNLRKMGAPESGLAEYLFDKHTLGDSDNESMPSFITLASLSTWEGYFDF
notes: Spherical nanoparticle of 24 self-assembled monomers, made in E. coli; not shown: A hexa-His tag is present (Ni-NTA purification, anti-His detection)

— patent publication EP4335867A1 (Cellemedy Co., Ltd, dated 2024)
